Experimental data taken from US20210163536A1 (IPSEN PHARMA S A S, published 2021).

B1: cyclo[Hydantoin(C(O)-(Gly-Cys))-Glu-His-D-Phe-Arg-Trp-Cys]-NH2 (peptide)
peptide: EHXRWC
modifications: not fully specified; hydantoin ring from Gly 1, C(O) and the amino group of Cys 2; D-Phe 5; disulfide Cys 2-Cys 8 (cyclo); C-terminal amide
B2: Hydantoin(C(O)-(Nle-Gly))-cyclo(Cys-Glu-His-D-Phe-Arg-Trp-Cys)-NH2 (peptide)
peptide: CEHXRWC
modifications: not fully specified; hydantoin ring from Nle 1, C(O) and the amino group of Gly 2; Nle 1; D-Phe 6; disulfide Cys 3-Cys 9 (cyclo); C-terminal amide
notes: residue 6 here is D-Phe; also called Compound F
B3: Hydantoin(C(O)-(Gly-Arg))-cyclo(Cys-Glu-His-D-Phe-Arg-Trp-Cys)-NH2 (peptide)
peptide: CEHXRWC
modifications: hydantoin ring from Gly 1, C(O) and the amino group of Arg 2; D-Phe 6; disulfide Cys 3-Cys 9 (cyclo); C-terminal amide
notes: residue 6 here is D-Phe; also called Compound E
B4: Hydantoin(C(O)-(Gly-Gly))-cyclo(Cys-Glu-His-D-Phe-Arg-Trp-Cys)-NH2 (peptide)
peptide: CEHXRWC
modifications: not fully specified; hydantoin ring from Gly 1, C(O) and the amino group of Gly 2; D-Phe 6; disulfide Cys 3-Cys 9 (cyclo); C-terminal amide
notes: residue 6 here is D-Phe
B5: Hydantoin(C(O)-(Arg-Gly))-cyclo(Cys-Glu-His-D-Phe-Arg-Trp-Cys)-NH2 (peptide)
peptide: CEHXRWC
modifications: not fully specified; hydantoin ring from Arg 1, C(O) and the amino group of Gly 2; D-Phe 6; disulfide Cys 3-Cys 9 (cyclo); C-terminal amide
notes: also called Compound C
B6: cyclo[Hydantoin(C(O)-(Ile-Cys))-D-Ala-His-D-Phe-Arg-Trp-Cys]-NH2 (peptide)
peptide: XHXRWC
modifications: hydantoin ring from Ile 1, C(O) and the amino group of Cys 2; D-Ala 3; D-Phe 5; disulfide Cys 2-Cys 8 (cyclo); C-terminal amide

biological target: T1, human melanocortin-5 receptor (human, UniProt P33032 1-325); test: competition with [125I]-NDP-alpha-MSH, CHO-K1 cell membranes
T1 construct: whole, on cells; Ki assays used cellular membranes of the CHO-K1 cells; cAMP assays used the whole cells; also called hMC5; hMC-R receptor subtype 5
T1 sequence (P33032 whole entry): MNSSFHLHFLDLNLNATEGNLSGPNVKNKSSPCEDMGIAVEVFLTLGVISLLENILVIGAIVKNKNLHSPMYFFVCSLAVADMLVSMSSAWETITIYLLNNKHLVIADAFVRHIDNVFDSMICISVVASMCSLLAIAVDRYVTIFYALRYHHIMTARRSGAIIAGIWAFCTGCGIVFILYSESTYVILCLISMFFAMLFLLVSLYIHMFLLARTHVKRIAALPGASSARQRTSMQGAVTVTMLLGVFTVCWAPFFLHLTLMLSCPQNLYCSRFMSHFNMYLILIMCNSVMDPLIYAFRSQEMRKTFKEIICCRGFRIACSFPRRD
Method: (§1) Competitive inhibition of [¹²⁵I](Tyr²)-(Nle⁴-D-Phe⁷)α-MSH ([¹²⁵I]-NDP-α-MSH, Amersham Biosciences®) binding was carried out in polypropylene 96 well plates. […] Bound [¹²⁵I]-NDP-α-MSH ligand was separated from free [¹²⁵I]-NDP-α-MSH by filtration through GF/C glass fiber filter plates (Unifilter®; Packard) presoaked with 0.1% (w/v) polyethylenimine (PEI), using a Packard Filtermate® harvester. Filters were washed three times with 50 mM Tris-HCl at pH 7.4 at a temperature of approximately 0-4° C. and then assayed for radioactivity using a Packard Topcount® scintillation counter. Binding data were analyzed by computer-assisted non-linear regression analysis (XL fit; IDBS).

| Binder | Ki |
| --- | --- |
| B1 | 3.07 µM |
| B2 | 0.0678 µM |
| B3 | 4.22 µM |
| B4 | 0.0739 µM |
| B5 | 7.76 µM |

biological target: T2, human melanocortin-1 receptor (human, UniProt Q01726 1-317); test: as above
T2 construct: whole, on cells; Ki assays used cellular membranes of the CHO-K1 cells; cAMP assays used the whole cells; also called hMC1; hMC-R receptor subtype 1
T2 sequence (Q01726 whole entry): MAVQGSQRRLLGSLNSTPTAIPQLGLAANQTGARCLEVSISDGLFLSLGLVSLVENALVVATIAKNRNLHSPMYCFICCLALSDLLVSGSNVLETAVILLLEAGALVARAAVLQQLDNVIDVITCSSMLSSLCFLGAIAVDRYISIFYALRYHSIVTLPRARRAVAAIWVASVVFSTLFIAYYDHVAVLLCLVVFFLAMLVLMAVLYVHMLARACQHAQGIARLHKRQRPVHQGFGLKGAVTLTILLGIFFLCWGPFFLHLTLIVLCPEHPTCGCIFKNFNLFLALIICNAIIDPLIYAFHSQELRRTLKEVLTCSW
Method: as §1

| Binder | Ki |
| --- | --- |
| B1 | 15.6 nM |
| B2 | 14.3 nM |
| B3 | 5.68 nM |
| B6 | 53.4 nM |
| B4 | 11.9 nM |
| B5 | 8.59 nM |

biological target: T3, human melanocortin-3 receptor (human, UniProt P41968 1-323); test: as above
T3 construct: whole, on cells; Ki assays used cellular membranes of the CHO-K1 cells; cAMP assays used the whole cells; also called hMC3; hMC-R receptor subtype 3
T3 sequence (P41968 whole entry): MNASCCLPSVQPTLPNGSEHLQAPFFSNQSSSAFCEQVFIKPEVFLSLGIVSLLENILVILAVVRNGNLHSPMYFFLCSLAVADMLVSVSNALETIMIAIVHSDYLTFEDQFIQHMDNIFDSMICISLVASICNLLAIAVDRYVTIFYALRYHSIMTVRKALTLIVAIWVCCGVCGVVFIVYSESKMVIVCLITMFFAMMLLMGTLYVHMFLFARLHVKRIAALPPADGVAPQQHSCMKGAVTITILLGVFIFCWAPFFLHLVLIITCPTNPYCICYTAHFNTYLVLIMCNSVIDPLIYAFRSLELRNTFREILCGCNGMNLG
Method: as §1

| Binder | Ki |
| --- | --- |
| B1 | 305 nM |

biological target: T4, human melanocortin-4 receptor (human, UniProt P32245 1-332); test: as above
T4 construct: whole, on cells; Ki assays used cellular membranes of the CHO-K1 cells; cAMP assays used the whole cells; also called hMC4; hMC-R receptor subtype 4
T4 sequence (P32245 whole entry): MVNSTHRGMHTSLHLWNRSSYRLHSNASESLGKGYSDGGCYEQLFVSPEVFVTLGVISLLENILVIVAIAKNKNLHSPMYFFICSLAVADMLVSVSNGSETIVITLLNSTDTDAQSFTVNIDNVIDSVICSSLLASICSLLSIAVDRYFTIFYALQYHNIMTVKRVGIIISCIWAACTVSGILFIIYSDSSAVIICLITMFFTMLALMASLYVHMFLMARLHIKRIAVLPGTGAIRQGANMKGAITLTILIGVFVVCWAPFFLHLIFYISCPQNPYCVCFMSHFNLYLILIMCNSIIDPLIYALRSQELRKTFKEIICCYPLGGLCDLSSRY
Method: as §1

| Binder | Ki |
| --- | --- |
| B1 | 8.92 nM |
| B6 | 41.6 nM |
